Data reported in patent US11965039B2, “Compstatin analogues and their medical uses” (priority 2018, dated 2024).
Positions of bridges follow the written chain, without caps; N, C: chain ends. Non-standard residues stand in square brackets, D forms with d. Trp(1-Me) = Cn1cc(C[C@H](N)C(=O)O)c2ccccc21; 1Nal = N[C@@H](Cc1cccc2ccccc12)C(=O)O; 2Nal = N[C@@H](Cc1ccc2ccccc2c1)C(=O)O

Molecular target: Human C3 (Complement tech cat #A113c) (human, UniProt P01024 23-1663)
Experiment: cell-based or functional assay

Chain of Human C3 (Complement tech cat #A113c) (P01024 23-1663 limits assumed): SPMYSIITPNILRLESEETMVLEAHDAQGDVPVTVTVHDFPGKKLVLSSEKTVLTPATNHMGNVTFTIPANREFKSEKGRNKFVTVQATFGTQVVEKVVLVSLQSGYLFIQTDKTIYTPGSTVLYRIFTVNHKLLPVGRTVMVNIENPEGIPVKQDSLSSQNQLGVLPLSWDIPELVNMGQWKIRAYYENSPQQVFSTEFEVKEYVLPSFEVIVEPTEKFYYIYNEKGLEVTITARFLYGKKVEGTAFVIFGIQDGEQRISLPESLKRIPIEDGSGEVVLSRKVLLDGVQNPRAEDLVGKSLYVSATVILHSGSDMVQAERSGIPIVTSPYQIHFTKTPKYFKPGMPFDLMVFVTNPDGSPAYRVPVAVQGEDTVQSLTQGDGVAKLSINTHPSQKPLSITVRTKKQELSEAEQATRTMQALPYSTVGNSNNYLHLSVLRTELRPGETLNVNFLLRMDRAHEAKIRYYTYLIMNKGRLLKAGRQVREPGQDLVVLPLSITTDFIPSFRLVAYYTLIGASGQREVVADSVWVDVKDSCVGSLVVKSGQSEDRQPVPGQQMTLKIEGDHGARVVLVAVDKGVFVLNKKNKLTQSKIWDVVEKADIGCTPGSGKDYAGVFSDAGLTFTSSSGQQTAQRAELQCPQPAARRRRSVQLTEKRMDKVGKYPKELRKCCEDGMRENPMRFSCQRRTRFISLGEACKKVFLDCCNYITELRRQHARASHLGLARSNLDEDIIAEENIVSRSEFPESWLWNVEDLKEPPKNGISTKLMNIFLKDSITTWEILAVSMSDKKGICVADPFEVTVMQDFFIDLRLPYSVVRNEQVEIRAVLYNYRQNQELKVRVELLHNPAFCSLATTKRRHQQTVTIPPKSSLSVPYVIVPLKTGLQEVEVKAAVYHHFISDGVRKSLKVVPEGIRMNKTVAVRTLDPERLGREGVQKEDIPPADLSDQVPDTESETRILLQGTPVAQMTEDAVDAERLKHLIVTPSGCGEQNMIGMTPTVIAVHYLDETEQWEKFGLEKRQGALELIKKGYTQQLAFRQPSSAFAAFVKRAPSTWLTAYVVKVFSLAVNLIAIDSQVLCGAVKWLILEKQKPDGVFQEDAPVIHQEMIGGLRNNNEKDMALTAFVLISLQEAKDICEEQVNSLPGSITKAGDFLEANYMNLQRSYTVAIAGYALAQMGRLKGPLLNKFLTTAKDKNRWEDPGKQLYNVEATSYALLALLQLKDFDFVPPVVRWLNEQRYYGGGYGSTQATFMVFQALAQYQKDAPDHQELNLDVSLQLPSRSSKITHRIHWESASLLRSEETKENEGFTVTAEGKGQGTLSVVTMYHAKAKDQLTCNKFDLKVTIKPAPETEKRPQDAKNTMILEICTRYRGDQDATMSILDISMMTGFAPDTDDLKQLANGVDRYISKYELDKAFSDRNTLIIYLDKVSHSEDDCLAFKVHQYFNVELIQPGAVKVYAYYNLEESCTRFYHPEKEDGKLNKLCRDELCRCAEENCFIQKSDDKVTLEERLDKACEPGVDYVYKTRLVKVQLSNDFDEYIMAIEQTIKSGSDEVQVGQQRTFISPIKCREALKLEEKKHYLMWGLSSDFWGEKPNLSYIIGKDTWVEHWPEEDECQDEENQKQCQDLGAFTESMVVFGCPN

| Binder | inhibition of hemolysis IC50 [nM] |
| --- | --- |
| Ac-ESSAICIWQDWGAHRCT-NH2 (disulfide 6-16; SMILES CC[C@H](C)[C@H](NC(=O)[C@H](C)NC(=O)[C@H](CO)NC(=O)[C@H](CO)NC(=O)[C@H](CCC(=O)O)NC(C)=O)C(=O)N[C@H]1CSSC[C@@H](C(=O)N[C@H](C(N)=O)[C@@H](C)O)NC(=O)[C@H](CCCNC(=N)N)NC(=O)[C@H](Cc2c[nH]cn2)NC(=O)[C@H](C)NC(=O)CNC(=O)[C@H](Cc2c[nH]c3ccccc23)NC(=O)[C@H](CC(=O)O)NC(=O)[C@H](CCC(N)=O)NC(=O)[C@H](Cc2c[nH]c3ccccc23)NC(=O)[C@H]([C@@H](C)CC)NC1=O) [Compound 46] | < 100 |
| Ac-ICIWQDWGAHRCTGAES-NH2 (disulfide 2-12; SMILES CC[C@H](C)[C@H](NC(C)=O)C(=O)N[C@H]1CSSC[C@@H](C(=O)N[C@H](C(=O)NCC(=O)N[C@@H](C)C(=O)N[C@@H](CCC(=O)O)C(=O)N[C@@H](CO)C(N)=O)[C@@H](C)O)NC(=O)[C@H](CCCNC(=N)N)NC(=O)[C@H](Cc2c[nH]cn2)NC(=O)[C@H](C)NC(=O)CNC(=O)[C@H](Cc2c[nH]c3ccccc23)NC(=O)[C@H](CC(=O)O)NC(=O)[C@H](CCC(N)=O)NC(=O)[C@H](Cc2c[nH]c3ccccc23)NC(=O)[C@H]([C@@H](C)CC)NC1=O) [Compound 47] | < 100 |
| Ac-ICI[Trp(1-Me)]QDWGEHRCTGAES-NH2 (disulfide 2-12; SMILES CC[C@H](C)[C@H](NC(C)=O)C(=O)N[C@H]1CSSC[C@@H](C(=O)N[C@H](C(=O)NCC(=O)N[C@@H](C)C(=O)N[C@@H](CCC(=O)O)C(=O)N[C@@H](CO)C(N)=O)[C@@H](C)O)NC(=O)[C@H](CCCNC(=N)N)NC(=O)[C@H](Cc2c[nH]cn2)NC(=O)[C@H](CCC(=O)O)NC(=O)CNC(=O)[C@H](Cc2c[nH]c3ccccc23)NC(=O)[C@H](CC(=O)O)NC(=O)[C@H](CCC(N)=O)NC(=O)[C@H](Cc2cn(C)c3ccccc23)NC(=O)[C@H]([C@@H](C)CC)NC1=O) [Compound 51] | < 100 |
| Ac-ICI[2Nal]QDWGEHRCTGAES-NH2 (disulfide 2-12; SMILES CC[C@H](C)[C@H](NC(C)=O)C(=O)N[C@H]1CSSC[C@@H](C(=O)N[C@H](C(=O)NCC(=O)N[C@@H](C)C(=O)N[C@@H](CCC(=O)O)C(=O)N[C@@H](CO)C(N)=O)[C@@H](C)O)NC(=O)[C@H](CCCNC(=N)N)NC(=O)[C@H](Cc2c[nH]cn2)NC(=O)[C@H](CCC(=O)O)NC(=O)CNC(=O)[C@H](Cc2c[nH]c3ccccc23)NC(=O)[C@H](CC(=O)O)NC(=O)[C@H](CCC(N)=O)NC(=O)[C@H](Cc2ccc3ccccc3c2)NC(=O)[C@H]([C@@H](C)CC)NC1=O) [Compound 52] | < 100 |
| Ac-EGSAICIWQDWGEHRCTE-NH2 (disulfide 6-16; SMILES CC[C@H](C)[C@H](NC(=O)[C@H](C)NC(=O)[C@H](CO)NC(=O)CNC(=O)[C@H](CCC(=O)O)NC(C)=O)C(=O)N[C@H]1CSSC[C@@H](C(=O)N[C@H](C(=O)N[C@@H](CCC(=O)O)C(N)=O)[C@@H](C)O)NC(=O)[C@H](CCCNC(=N)N)NC(=O)[C@H](Cc2c[nH]cn2)NC(=O)[C@H](CCC(=O)O)NC(=O)CNC(=O)[C@H](Cc2c[nH]c3ccccc23)NC(=O)[C@H](CC(=O)O)NC(=O)[C@H](CCC(N)=O)NC(=O)[C@H](Cc2c[nH]c3ccccc23)NC(=O)[C@H]([C@@H](C)CC)NC1=O) [Compound 55] | < 250 |
| Ac-EGSAFCI[1Nal]QDWGEHRCTE-NH2 (disulfide 6-16; SMILES CC[C@H](C)[C@@H]1NC(=O)[C@@H](NC(=O)[C@H](Cc2ccccc2)NC(=O)[C@H](C)NC(=O)[C@H](CO)NC(=O)CNC(=O)[C@H](CCC(=O)O)NC(C)=O)CSSC[C@@H](C(=O)N[C@H](C(=O)N[C@@H](CCC(=O)O)C(N)=O)[C@@H](C)O)NC(=O)[C@H](CCCNC(=N)N)NC(=O)[C@H](Cc2c[nH]cn2)NC(=O)[C@H](CCC(=O)O)NC(=O)CNC(=O)[C@H](Cc2c[nH]c3ccccc23)NC(=O)[C@H](CC(=O)O)NC(=O)[C@H](CCC(N)=O)NC(=O)[C@H](Cc2cccc3ccccc23)NC1=O) [Compound 56] | < 100 |
| Ac-EGSAFCI[Trp(1-Me)]QDWGEHRCTE-NH2 (disulfide 6-16; SMILES CC[C@H](C)[C@@H]1NC(=O)[C@@H](NC(=O)[C@H](Cc2ccccc2)NC(=O)[C@H](C)NC(=O)[C@H](CO)NC(=O)CNC(=O)[C@H](CCC(=O)O)NC(C)=O)CSSC[C@@H](C(=O)N[C@H](C(=O)N[C@@H](CCC(=O)O)C(N)=O)[C@@H](C)O)NC(=O)[C@H](CCCNC(=N)N)NC(=O)[C@H](Cc2c[nH]cn2)NC(=O)[C@H](CCC(=O)O)NC(=O)CNC(=O)[C@H](Cc2c[nH]c3ccccc23)NC(=O)[C@H](CC(=O)O)NC(=O)[C@H](CCC(N)=O)NC(=O)[C@H](Cc2cn(C)c3ccccc23)NC1=O) [Compound 57] | < 100 |
| Ac-EGSAFCI[Trp(1-Me)]QDWGEHRCEGE-NH2 (disulfide 6-16; SMILES CC[C@H](C)[C@@H]1NC(=O)[C@@H](NC(=O)[C@H](Cc2ccccc2)NC(=O)[C@H](C)NC(=O)[C@H](CO)NC(=O)CNC(=O)[C@H](CCC(=O)O)NC(C)=O)CSSC[C@@H](C(=O)N[C@@H](CCC(=O)O)C(=O)NCC(=O)N[C@@H](CCC(=O)O)C(N)=O)NC(=O)[C@H](CCCNC(=N)N)NC(=O)[C@H](Cc2c[nH]cn2)NC(=O)[C@H](CCC(=O)O)NC(=O)CNC(=O)[C@H](Cc2c[nH]c3ccccc23)NC(=O)[C@H](CC(=O)O)NC(=O)[C@H](CCC(N)=O)NC(=O)[C@H](Cc2cn(C)c3ccccc23)NC1=O) [Compound 58] | < 100 |
| Ac-EGSAYCI[Trp(1-Me)]QDWGEHRCTE-NH2 (disulfide 6-16; SMILES CC[C@H](C)[C@@H]1NC(=O)[C@@H](NC(=O)[C@H](Cc2ccc(O)cc2)NC(=O)[C@H](C)NC(=O)[C@H](CO)NC(=O)CNC(=O)[C@H](CCC(=O)O)NC(C)=O)CSSC[C@@H](C(=O)N[C@H](C(=O)N[C@@H](CCC(=O)O)C(N)=O)[C@@H](C)O)NC(=O)[C@H](CCCNC(=N)N)NC(=O)[C@H](Cc2c[nH]cn2)NC(=O)[C@H](CCC(=O)O)NC(=O)CNC(=O)[C@H](Cc2c[nH]c3ccccc23)NC(=O)[C@H](CC(=O)O)NC(=O)[C@H](CCC(N)=O)NC(=O)[C@H](Cc2cn(C)c3ccccc23)NC1=O) [Compound 59] | < 100 |
| Ac-EGSAFCI[2Nal]QDWGEHRCTE-NH2 (disulfide 6-16; SMILES CC[C@H](C)[C@@H]1NC(=O)[C@@H](NC(=O)[C@H](Cc2ccccc2)NC(=O)[C@H](C)NC(=O)[C@H](CO)NC(=O)CNC(=O)[C@H](CCC(=O)O)NC(C)=O)CSSC[C@@H](C(=O)N[C@H](C(=O)N[C@@H](CCC(=O)O)C(N)=O)[C@@H](C)O)NC(=O)[C@H](CCCNC(=N)N)NC(=O)[C@H](Cc2c[nH]cn2)NC(=O)[C@H](CCC(=O)O)NC(=O)CNC(=O)[C@H](Cc2c[nH]c3ccccc23)NC(=O)[C@H](CC(=O)O)NC(=O)[C@H](CCC(N)=O)NC(=O)[C@H](Cc2ccc3ccccc3c2)NC1=O) [Compound 60] | < 100 |
| Ac-YCI[Trp(1-Me)]QDWGEHRCTGAES-NH2 (disulfide 2-12; SMILES CC[C@H](C)[C@@H]1NC(=O)[C@@H](NC(=O)[C@H](Cc2ccc(O)cc2)NC(C)=O)CSSC[C@@H](C(=O)N[C@H](C(=O)NCC(=O)N[C@@H](C)C(=O)N[C@@H](CCC(=O)O)C(=O)N[C@@H](CO)C(N)=O)[C@@H](C)O)NC(=O)[C@H](CCCNC(=N)N)NC(=O)[C@H](Cc2c[nH]cn2)NC(=O)[C@H](CCC(=O)O)NC(=O)CNC(=O)[C@H](Cc2c[nH]c3ccccc23)NC(=O)[C@H](CC(=O)O)NC(=O)[C@H](CCC(N)=O)NC(=O)[C@H](Cc2cn(C)c3ccccc23)NC1=O) [Compound 62] | < 100 |
| Ac-FCI[2Nal]QDWGEHRCTGAES-NH2 (disulfide 2-12; SMILES CC[C@H](C)[C@@H]1NC(=O)[C@@H](NC(=O)[C@H](Cc2ccccc2)NC(C)=O)CSSC[C@@H](C(=O)N[C@H](C(=O)NCC(=O)N[C@@H](C)C(=O)N[C@@H](CCC(=O)O)C(=O)N[C@@H](CO)C(N)=O)[C@@H](C)O)NC(=O)[C@H](CCCNC(=N)N)NC(=O)[C@H](Cc2c[nH]cn2)NC(=O)[C@H](CCC(=O)O)NC(=O)CNC(=O)[C@H](Cc2c[nH]c3ccccc23)NC(=O)[C@H](CC(=O)O)NC(=O)[C@H](CCC(N)=O)NC(=O)[C@H](Cc2ccc3ccccc3c2)NC1=O) [Compound 64] | < 100 |
| Ac-YCI[2Nal]QDWGEHRCTGAES-NH2 (disulfide 2-12; SMILES CC[C@H](C)[C@@H]1NC(=O)[C@@H](NC(=O)[C@H](Cc2ccc(O)cc2)NC(C)=O)CSSC[C@@H](C(=O)N[C@H](C(=O)NCC(=O)N[C@@H](C)C(=O)N[C@@H](CCC(=O)O)C(=O)N[C@@H](CO)C(N)=O)[C@@H](C)O)NC(=O)[C@H](CCCNC(=N)N)NC(=O)[C@H](Cc2c[nH]cn2)NC(=O)[C@H](CCC(=O)O)NC(=O)CNC(=O)[C@H](Cc2c[nH]c3ccccc23)NC(=O)[C@H](CC(=O)O)NC(=O)[C@H](CCC(N)=O)NC(=O)[C@H](Cc2ccc3ccccc3c2)NC1=O) [Compound 65] | < 100 |
| Ac-YCIWQDWGEHRCTGAES-NH2 (disulfide 2-12; SMILES CC[C@H](C)[C@@H]1NC(=O)[C@@H](NC(=O)[C@H](Cc2ccc(O)cc2)NC(C)=O)CSSC[C@@H](C(=O)N[C@H](C(=O)NCC(=O)N[C@@H](C)C(=O)N[C@@H](CCC(=O)O)C(=O)N[C@@H](CO)C(N)=O)[C@@H](C)O)NC(=O)[C@H](CCCNC(=N)N)NC(=O)[C@H](Cc2c[nH]cn2)NC(=O)[C@H](CCC(=O)O)NC(=O)CNC(=O)[C@H](Cc2c[nH]c3ccccc23)NC(=O)[C@H](CC(=O)O)NC(=O)[C@H](CCC(N)=O)NC(=O)[C@H](Cc2c[nH]c3ccccc23)NC1=O) [Compound 66] | < 100 |
